We go through 15 molecules from patent US20240024520A1, “AUTONOMOUS KNOB DOMAIN PEPTIDES” (UCB BIOPHARMA SRL, priority 2020, published 2024).

What all share (type): binding
Assay [1] concerns the target rat C5 protein (Rattus norvegicus, UniProt P08650). Put plainly: Monoclonal phage screening ELISA, rat C5. On the procedure:
(§1) For the C5 libraries, a single round of enrichment was performed with either human or rat C5 protein. […] Phage were blocked for 30 minutes. Biotinylated antigen was added to the blocked phage at a concentration of 100 nM and incubated at room temperature with mixing.
(§2) Colonies were picked into a 96-well culture plate containing selective medium 2TY supplemented with 1% Glucose and 100 μg/ml Carbenicillin and was incubated at 37° C. until wells reached mid-log phase of growth prior to addition of M13K07 helper phage. The block was incubated without shaking for 1 hour to achieve infection and phage production using continued culture in selective media supplemented with 50 μg/ml Kanamycin and 100 μg/ml Carbenicillin.
[…] Negative control plate and Anti-myc tag plate were also prepared.
(§3) Monoclonal phage rescue supernatants were blocked with an equal volume of a 2% milk (w/v) in PBS, for serum albumin proteins, or 2% BSA and 2% milk (w/v) in PBS solution. The coating solution was removed from coated Nunc plates and each plate was blocked with 1% BSA in PBS (for C5 libraries) or 1% milk powder (for albumin library). Both phage and Nunc plates were blocked for 1 hour at room temperature. Nunc plates were washed using a 96-well microplate washer (BioTek) with a PBS solution contain 0.1% Tween20 (Sigma Aldrich). 100 of blocked phage solution was added to each well of Nunc MaxiSorp plate and left shaking at room temperature for 1 hour. Plates were washed and dried as previously described. 100 of an Anti-M13-Horse radish peroxidase conjugated antibody (GE Healthcare) diluted (1:5,000) in a 1% BSA or milk solution was added to each well and left shaking at room temperature for 1 hour. Plates were washed again and 50 μL of TMB solution (Merck Millipore) was added to each well. Plates were left shaking for 10 minutes. Absorbance was measured at 630 nm and 490 nm. Binding signals were obtained where Absorbance at 630 nm was >3-times the signal upon irrelevant antigen.
(§4) By monoclonal phage ELISA the following ultralong CDR-H3 sequences were identified as binders (OD>0.2 AU): […]
On the technique in general: ELISA stands for enzyme-linked immunosorbent assay.

Assay [2] addresses T1, C5 (Homo sapiens, UniProt P01031). Description: Monoclonal phage screening ELISA, human C5. On the procedure: as §1, §2
Binding to antigen was assessed by monoclonal phage ELISA, 96-well flat bottom Nunc MaxiSorp plates (Thermofisher) were coated with a 2.5 μg/ml solution of human, mouse, or rat serum albumin, human C5 or mouse C5 diluted with PBS, and left overnight at 4° C. Negative control plate and Anti-myc tag plate were also prepared.
as §3, §4

For assay [3], the target named is T1, C5. Put plainly: Biacore multi-cycle kinetics on human C5. The note with it: for mean stoichiometric ratio: measured Rmax divided by theoretical Rmax, n = 3 experiments; for koff: read-out: mean Koff, multi-cycle kinetics, n = 3 experiments; for kon: read-out: mean Kon, multi-cycle kinetics, n = 3 experiments. On the procedure:
Binding of knob domain peptides to human C5 was measured by SPR, using a multi-cycle kinetics method as follows:
Kinetics were measured using a Biacore 8K (GE Healthcare) with a CM5 chip, which was prepared as follows: EDC/NHS was mixed at 1:1 ratio (flow rate, 10 μL/min; contact time, 30 seconds), human C5 protein at 1 μg/mL in pH 4.5 sodium-acetate buffer, were injected over flow cell one only (flow rate, 10 μL/min; contact time, 60 seconds). Final immobilization levels in the range of 2000-3000 response units (RU) were obtained, to yield theoretical Rmax values of ˜50-60 RU. Serial dilutions of peptide were prepared in HBS-EP buffer and injected (flow rate, 30 μL/min; contact time, 240 seconds; dissociation time, 6000 seconds). After each injection, the surface was regenerated with two sequential injections of 2M MgCl2 (flow rate, […]; contact time, 30 seconds). Binding to the reference surface was subtracted, and the data were fitted to a single site binding model, using Biacore evaluation software.
(In general: In SPR one partner is held on a chip, and binding of the other changes the refractive index at the surface.)

Assay [4] deals with T1, C5. Put plainly: Biacore (SPR) single-cycle kinetics on immobilised C5. The note with it: for kd: chemically derived knob domain peptides, n = 1; for kon: read-out: ka. On the procedure:
Binding to C5 was measured using surface plasmon resonance (SPR) single-cycle kinetics as described below.
Biacore single-cycle kinetics. Using a Biacore 8K (GE Healthcare), C5 was immobilized on a CM5 chip by amine coupling. Flow cells were activated using EDC/NHS (flow rate, 10 μL/min; contact time, 30 s). C5, at 1 μg/mL in pH 4.5 Sodium-acetate buffer, was immobilized on flow cell two only (flow rate, 10 μL/min; contact time, 420 s). Finally, ethanolamine was applied to both flow cells (flow rate, 10 μL/min; contact time, 420 s). A final immobilization level of approximately 2,000 response units was obtained.
Single-cycle kinetics were measured using titrations in HBS-EP buffer. A high flow rate of 40 μL/min was used, with a contact time of 230 s and a dissociation time of 900 s. Binding to the reference surface was subtracted, and the data were fitted to a single-site binding model using Biacore evaluation software.
We measured individual rate constants (kon and koff) and equilibrium dissociation constants (KD) for knob domain peptides binding to C5 by the Biacore single-cycle kinetics method described above.
We used SPR single cycle kinetics to measure binding to human C5 protein.

Where [5] appears, read: anti-C5 ultralong CDR-H3, binder = OD>0.2 AU.
The mark [6] stands for this setting: knob domain of the anti-C5 ultralong CDR-H3.

Bridge positions count the residues as written; N and C are the ends. Peptide text beside a SMILES is read from it.

Sequence of rat C5 protein (P08650 19-674 limits assumed): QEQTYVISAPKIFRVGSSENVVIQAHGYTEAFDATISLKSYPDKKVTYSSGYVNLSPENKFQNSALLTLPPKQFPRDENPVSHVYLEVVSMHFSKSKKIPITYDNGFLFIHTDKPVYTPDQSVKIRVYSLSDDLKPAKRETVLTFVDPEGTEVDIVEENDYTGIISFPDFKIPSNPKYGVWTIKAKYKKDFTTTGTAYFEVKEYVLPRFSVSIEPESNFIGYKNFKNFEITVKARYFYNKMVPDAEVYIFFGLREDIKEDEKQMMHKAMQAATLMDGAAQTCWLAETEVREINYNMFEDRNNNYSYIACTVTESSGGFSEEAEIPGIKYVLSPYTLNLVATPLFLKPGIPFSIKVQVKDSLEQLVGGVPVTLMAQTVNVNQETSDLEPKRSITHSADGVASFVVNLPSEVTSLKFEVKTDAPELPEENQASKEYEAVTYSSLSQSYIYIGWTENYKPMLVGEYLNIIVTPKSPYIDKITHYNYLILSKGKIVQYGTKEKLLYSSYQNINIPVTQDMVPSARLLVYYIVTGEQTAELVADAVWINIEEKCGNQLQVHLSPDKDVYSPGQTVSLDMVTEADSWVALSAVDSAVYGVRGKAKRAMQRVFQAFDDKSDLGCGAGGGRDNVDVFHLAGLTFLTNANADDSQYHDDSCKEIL
Sequence of rat C5 protein (P08650 679-1681 limits assumed): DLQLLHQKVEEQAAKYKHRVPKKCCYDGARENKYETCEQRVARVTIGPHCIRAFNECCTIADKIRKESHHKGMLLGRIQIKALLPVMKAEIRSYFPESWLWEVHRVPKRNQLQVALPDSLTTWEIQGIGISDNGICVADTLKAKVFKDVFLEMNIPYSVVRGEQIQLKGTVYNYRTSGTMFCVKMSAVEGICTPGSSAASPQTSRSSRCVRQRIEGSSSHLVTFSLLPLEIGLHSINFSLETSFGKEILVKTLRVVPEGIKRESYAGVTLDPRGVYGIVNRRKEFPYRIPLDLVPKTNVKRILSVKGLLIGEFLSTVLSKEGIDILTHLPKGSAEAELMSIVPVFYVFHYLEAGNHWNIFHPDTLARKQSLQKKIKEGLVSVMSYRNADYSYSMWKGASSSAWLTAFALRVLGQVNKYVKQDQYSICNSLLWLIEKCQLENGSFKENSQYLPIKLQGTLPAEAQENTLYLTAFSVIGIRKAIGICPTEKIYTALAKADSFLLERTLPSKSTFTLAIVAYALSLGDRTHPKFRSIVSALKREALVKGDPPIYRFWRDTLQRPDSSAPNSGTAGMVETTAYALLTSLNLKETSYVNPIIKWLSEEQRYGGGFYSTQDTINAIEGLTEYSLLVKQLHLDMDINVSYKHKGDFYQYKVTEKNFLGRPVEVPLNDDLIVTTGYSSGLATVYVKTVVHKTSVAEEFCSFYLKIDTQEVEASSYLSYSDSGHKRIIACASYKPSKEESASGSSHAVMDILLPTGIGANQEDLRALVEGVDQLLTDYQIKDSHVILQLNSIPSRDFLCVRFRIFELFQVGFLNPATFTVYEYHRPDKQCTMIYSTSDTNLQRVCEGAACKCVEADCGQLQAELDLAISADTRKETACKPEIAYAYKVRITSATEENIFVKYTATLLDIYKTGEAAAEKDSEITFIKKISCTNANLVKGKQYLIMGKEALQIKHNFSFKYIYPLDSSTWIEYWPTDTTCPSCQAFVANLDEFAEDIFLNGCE
T1 sequence (P01031 19-1676): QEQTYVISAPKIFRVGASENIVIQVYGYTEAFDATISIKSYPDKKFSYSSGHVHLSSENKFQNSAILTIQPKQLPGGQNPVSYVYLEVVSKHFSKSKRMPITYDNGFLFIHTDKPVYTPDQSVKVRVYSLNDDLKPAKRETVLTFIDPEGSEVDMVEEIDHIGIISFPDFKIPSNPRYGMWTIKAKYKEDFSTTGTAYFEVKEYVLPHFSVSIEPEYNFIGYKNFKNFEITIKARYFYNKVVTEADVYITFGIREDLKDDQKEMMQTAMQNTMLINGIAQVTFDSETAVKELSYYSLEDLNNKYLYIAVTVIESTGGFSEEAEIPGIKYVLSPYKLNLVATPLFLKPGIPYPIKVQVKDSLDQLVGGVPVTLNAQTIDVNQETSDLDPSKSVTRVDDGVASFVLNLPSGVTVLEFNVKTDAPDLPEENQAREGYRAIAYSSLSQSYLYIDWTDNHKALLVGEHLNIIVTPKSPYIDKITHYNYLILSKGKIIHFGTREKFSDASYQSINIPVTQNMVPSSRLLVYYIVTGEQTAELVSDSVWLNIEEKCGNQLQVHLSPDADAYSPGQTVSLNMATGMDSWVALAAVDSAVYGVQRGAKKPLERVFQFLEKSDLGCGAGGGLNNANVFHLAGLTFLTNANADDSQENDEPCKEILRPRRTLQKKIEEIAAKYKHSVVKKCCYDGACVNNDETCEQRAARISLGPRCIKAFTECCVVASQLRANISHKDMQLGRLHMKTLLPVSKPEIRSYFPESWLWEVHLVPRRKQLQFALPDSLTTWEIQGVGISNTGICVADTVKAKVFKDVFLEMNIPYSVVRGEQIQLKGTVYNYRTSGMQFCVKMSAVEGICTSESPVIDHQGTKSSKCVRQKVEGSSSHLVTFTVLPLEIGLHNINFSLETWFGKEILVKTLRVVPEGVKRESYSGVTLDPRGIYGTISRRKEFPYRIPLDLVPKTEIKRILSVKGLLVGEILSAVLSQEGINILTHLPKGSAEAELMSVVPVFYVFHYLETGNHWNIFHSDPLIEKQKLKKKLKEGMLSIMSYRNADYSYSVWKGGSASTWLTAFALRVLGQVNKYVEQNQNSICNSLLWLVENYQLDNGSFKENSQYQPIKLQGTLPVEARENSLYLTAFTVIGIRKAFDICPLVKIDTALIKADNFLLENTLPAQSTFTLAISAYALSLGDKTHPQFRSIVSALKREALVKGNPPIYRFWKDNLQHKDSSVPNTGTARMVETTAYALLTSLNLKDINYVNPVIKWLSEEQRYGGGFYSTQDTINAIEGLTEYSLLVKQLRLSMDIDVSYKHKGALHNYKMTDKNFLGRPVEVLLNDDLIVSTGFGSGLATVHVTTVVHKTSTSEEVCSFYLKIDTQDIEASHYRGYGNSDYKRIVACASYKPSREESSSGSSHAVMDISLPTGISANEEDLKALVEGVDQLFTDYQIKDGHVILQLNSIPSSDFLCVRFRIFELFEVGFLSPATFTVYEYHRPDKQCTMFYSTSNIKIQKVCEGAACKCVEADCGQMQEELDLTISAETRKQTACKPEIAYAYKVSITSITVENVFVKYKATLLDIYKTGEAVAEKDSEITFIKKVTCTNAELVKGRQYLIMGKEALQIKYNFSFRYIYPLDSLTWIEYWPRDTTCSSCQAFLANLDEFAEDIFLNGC

As to “551 (TTVHQRTKKTCPLGYDLNYRCDHFNTCRVEECCKNGVVNAYGICEYAGGSATYTYEWYVD; Anti-C5 ultralong CDR-H3) [compound 551]”, the Specificity entry is “Human and Rat” in assay [1] (setting [5]); “Human and Rat” in assay [2] (setting [5]).
Turning to “552 (TTVHQRTKEERTCPSGCSWFSGCWDTYRCGPSVCCRDGRYGCAAIICRDTYEWYVD; Anti-C5 ultralong CDR-H3) [compound 552]”, the Specificity result was “Human and Rat” in assay [1] (setting [5]); “Human and Rat” in assay [2] (setting [5]).
On to “553 (TTVHQKTKKTCPRGYHYNDRCEFFNTCRVEECCLNGVVNTYGICEYEGGSATYTYEWYVD; Anti-C5 ultralong CDR-H3) [compound 553]”, for which the Specificity entry in assay [1] (setting [5]) was “Human and Rat”; in assay [2] (setting [5]) it was “Human and Rat”.
“554 (TTVHQKTKKTCPRGYHYNDRCDFFNTCRVEECCLNGVVNTYGICEYEGGSATYTYEWYVD; Anti-C5 ultralong CDR-H3) [compound 554]”: the Specificity result in assay [1] (setting [5]) is “Human and Rat”; in assay [2] (setting [5]) it was “Human and Rat”.
As to “555 (TTVHQKTKKTCPRGYHYNDRCEFFNTCRVEECCLNGVVNTYGICEYEGGSATYTYEWYVD; Anti-C5 ultralong CDR-H3) [compound 555]”, the Specificity result is “Human and Rat” in assay [1] (setting [5]); “Human and Rat” in assay [2] (setting [5]).
Turning to “557 (TTVHLKTKKSCPLGYAINDRCDDLKTCGPDECCLNGVVNAYGICEYEGESATHTYEWYVD; Anti-C5 ultralong CDR-H3) [compound 557]”, the Specificity entry was “Human and Rat” in assay [1] (setting [5]); “Human and Rat” in assay [2] (setting [5]).
For the molecule “558 (TTVHQKTKKSCPLGYAINDRCDDLKTCGPDECCLNGVVNAYGICEYEGESATHTYELYVE; Anti-C5 ultralong CDR-H3) [compound 558]”, the Specificity result in assay [1] (setting [5]) is “Human and Rat”; in assay [2] (setting [5]), “Human and Rat”.
Turning to “594 (TCPLGYDLNYRCDHFNTCRVEECCKNGVVNAYGICEYAGGSAT; Anti-C5 ultralong CDR-H3 knob domain) [compound 594]”, the Specificity result was “Human and Rat” in assay [1] (setting [6]); “Human and Rat” in assay [2] (setting [6]).
“595 (TCPSGCSWFSGCWDTYRCGPSVCCRDGRYGCAAIICRDT; Anti-C5 ultralong CDR-H3 knob domain) [compound 595]”: the Specificity entry in assay [1] (setting [6]) was “Human and Rat”; in assay [2] (setting [6]) it was “Human and Rat”.
For the molecule “596 (TCPRGYHYNDRCEFFNTCRVEECCLNGVVNTYGICEYEGGSAT; Anti-C5 ultralong CDR-H3 knob domain) [compound 596]”, the Specificity entry in assay [1] (setting [6]) is “Human and Rat”; in assay [2] (setting [6]) it was “Human and Rat”.
“597 (TCPRGYHYNDRCDFFNTCRVEECCLNGVVNTYGICEYEGGSAT; Anti-C5 ultralong CDR-H3 knob domain) [compound 597]”: the Specificity entry in assay [1] (setting [6]) was “Human and Rat”; in assay [2] (setting [6]) it was “Human and Rat”.
Regarding “598 (SCPDGYGYGDGYCYDSGCSASDCYGVDALYSYGHCGCSIYTERPR; Anti-C5 ultralong CDR-H3 knob domain) [compound 598]”, the Specificity result in assay [1] (setting [6]) is “Human and Rat”; in assay [2] (setting [6]) it was “Human and Rat”.
Turning to “599 (SCPLGYAINDRCDDLKTCGPDECCLNGVVNAYGICEYEGESAT; Anti-C5 ultralong CDR-H3 knob domain) [compound 599]”, the Specificity entry in assay [1] (setting [6]) was “Human and Rat”; in assay [2] (setting [6]), “Human and Rat”.
On to `CSCC[C@@H]1NC(=O)[C@@H]2CCCN2C(=O)[C@@H](NC(=O)[C@@H]2CSSC[C@H](NC(=O)[C@@H](N)CO)C(=O)N3CCC[C@H]3C(=O)N[C@@H](CC(=O)O)C(=O)NCC(=O)N[C@@H](Cc3ccccc3)C(=O)N[C@@H](CO)C(=O)N[C@@H](Cc3ccc(O)cc3)C(=O)N[C@@H](CCCNC(=N)N)C(=O)N[C@@H](CO)C(=O)N[C@@H](Cc3c[nH]c4ccccc34)C(=O)N[C@@H](CC(=O)O)C(=O)N[C@@H](CC(=O)O)C(=O)N[C@@H](Cc3ccccc3)C(=O)N2)CSSC[C@@H](C(=O)N[C@@H](CC(C)C)C(=O)N[C@@H](C)C(=O)N2CCC[C@H]2C(=O)N[C@@H](CCCNC(=N)N)C(=O)N[C@@H](CC(N)=O)C(=O)O)NC(=O)[C@H](CCCNC(=N)N)NC(=O)CNC(=O)[C@H](C(C)C)NC1=O` (H-SCPDGFSYRSWDDFCCPMVGRCLAPRN-OH; disulfide 2-15, 16-22; N-terminus assumed), for which, in assay [3], the Kd (as a rule, a measure of binding affinity in units of concentration) came out at 7.31 nM; the koff (commonly a measure of how fast the partners let go of each other) came out at 0.00484 s⁻¹; the kon worked out at 713000 M⁻¹ s⁻¹. The mean stoichiometric ratio in assay [3] (listed as K149chemSD-A) stood at 0.82. Moreover, in assay [4], the Kd amounted to 6.17 nM, the kd worked out at 0.00723 s⁻¹ and the kon turned out to be 1.17e+06 M⁻¹ s⁻¹. Further, the “fold more potent than K149B” value in assay [4] (site directed disulphide forms of K149) is recorded as 41 fold.
In the case of `CSCC[C@@H]1NC(=O)[C@@H]2CCCN2C(=O)[C@@H]2CSSC[C@H](NC(=O)[C@@H](N)CO)C(=O)N3CCC[C@H]3C(=O)N[C@@H](CC(=O)O)C(=O)NCC(=O)N[C@@H](Cc3ccccc3)C(=O)N[C@@H](CO)C(=O)N[C@@H](Cc3ccc(O)cc3)C(=O)N[C@@H](CCCNC(=N)N)C(=O)N[C@@H](CO)C(=O)N[C@@H](Cc3c[nH]c4ccccc34)C(=O)N[C@@H](CC(=O)O)C(=O)N[C@@H](CC(=O)O)C(=O)N[C@@H](Cc3ccccc3)C(=O)N[C@@H](CSSC[C@@H](C(=O)N[C@@H](CC(C)C)C(=O)N[C@@H](C)C(=O)N3CCC[C@H]3C(=O)N[C@@H](CCCNC(=N)N)C(=O)N[C@@H](CC(N)=O)C(=O)O)NC(=O)[C@H](CCCNC(=N)N)NC(=O)CNC(=O)[C@H](C(C)C)NC1=O)C(=O)N2` [K149B] (H-SCPDGFSYRSWDDFCCPMVGRCLAPRN-OH; disulfide 2-16, 15-22; N-terminus assumed), in assay [3], the Kd stood at 269 nM, the “fold lower affinity (relative to K149chemSD-A)” value is “approximately 35 fold”, the mean stoichiometric ratio came out at 0.81 and the koff was 0.00417 s⁻¹. Further, the kon in assay [3] was found to be 15600 M⁻¹ s⁻¹. Besides, in assay [4], the Kd stood at 246 nM, the kd was found to be 0.00732 s⁻¹ and the kon stood at 29700 M⁻¹ s⁻¹.
